Results: US20220257704A1, “COMBINATION OF CHEMOTHERAPY WITH RECOMBINANT S. ROLFSII LECTIN” (Unichem Laboratories Ltd, priority 2018, published 2022)
Several values for one entry are separate records, joined by “and”; a condition that tells them apart may be missing. Equal entries are not always repeated.

Columns and labels:
Test in all cases: MTT cytotoxicity assay, 48 h, alone and in combination (IC50 and Combination Index)
Format in all cases: cell-based
[1] = system: HT-29 cell line
[2] = system: MDA-MB-231 cell line
Experimental: (§1) The cell were kept in contact with the recombinant lectin of SEQ ID NO: 1 and the chemotherapy agent for 48 h and the cytotoxic effect (percentage cytotoxicity) was measured. The cytotoxic effect was determined by well-known colorimetric MTT assay (Mossman, T. 1983 Rapid colorimetric assay for cellular growth and survival: application to proliferation and cytotoxicity assays Journal of Immunological Methods, volume 65, pages 55-63) for assessing cell metabolic activity.
(§2) Based on percentage cytotoxicity data, IC50 values were determined using the software GraphPad Prism version 4.01.
(§3) Combination Index (CI) values were determined for each drug concentration combination. The CI values were calculated based on the IC50 values using the formula as given in below.
A study was performed to determine the effect of the concentration of the recombinant lectin represented by SEQ ID NO: 1 on the IC50 of Paclitaxel for cytotoxicity in MDA-MB-231 cells. Conversely the effect of the concentration of Paclitaxel on the IC50 of the recombinant lectin represented by SEQ ID NO: 1.
Similarly another study was performed for Carboplatin in combination with the recombinant lectin of SEQ ID NO: 1.
In a further study, MDA-MB-231 cells were treated with Paclitaxel (0.001 nM-10 nM) in combination with SEQ ID NO: 1(2.5 μg/mL-80 μg/mL) for 48 h. Similarly another set of cells were treated with Carboplatin (10 μM-1000 μM) in combination with SEQ ID NO: 1 (2.5 μg/mL-80 μg/mL).

[3] = system: PA-1 cell line
Experimental: In a further study, PA-1 cells were treated with Cisplatin(0.01 μM-5 μM) in combination with SEQ ID NO: 1(1 μg/mL-20 μg/mL) for 48 h. Similarly another set of cells were treated with Paclitaxel (0.01 nM-5 nM) in combination with SEQ ID NO: 1 (1 μg/mL-20 μg/mL).

[4] = system: KB cell line
Experimental: A study was performed to determine the effect of the concentration of the recombinant lectin represented by SEQ ID NO: 1 on the IC50 of5-FU for cytotoxicity in KB cells.
Similarly another study was performed for Cisplatin in combination with the recombinant lectin of SEQ ID NO: 1.
Similarly another set of cells were treated with Cisplatin(0.1 μM to 1.5 μM)in combination with SEQ ID NO: 1(5.0 μg/mL-90 μg/mL).

[5] = system: PANC-1 cell line
Experimental: The cytotoxic effect on each combination was determined by MTT assay.
as §3

[6] = system: T24 cell line
Experimental: as §1, §2, §3
A study was performed to determine the effect of the concentration of the recombinant lectin represented by SEQ ID NO: 1 on the IC50 of Cisplatin for cytotoxicity in T24 cells. Conversely the effect of the concentration of Cisplatin on the IC50 of the recombinant lectin represented by SEQ ID NO: 1.
Similarly another study was performed for Gemcitabine in combination with the recombinant lectin of SEQ ID NO: 1.
This was performed using the same techniques as in Example 1-1.
In a further study, T24 cells were treated with Cisplatin (1 μM-500 μM) in combination with SEQ ID NO: 1(2.5 μg/mL-80 μg/mL) for 48 h. Similarly another set of cells were treated with Gemcitabine (1 μM-300 μM) in combination with SEQ ID NO: 1 (2.5 μg/mL-80 μg/mL). Combination Index values were determined for each drug combination and resultant antagonistic, additive or synergistic effect was determined, as described in Example 1-2.

[7] = in combination with Paclitaxel, paired with Paclitaxel conc. of the same table row
[8] = in combination with 5-FU, paired with 5-FU conc. of the same table row
[9] = in combination with Cisplatin, paired with Cisplatin conc. of the same table row

B1: SEQ ID NO: 1: recombinant lectin protein, variant of the S. rolfsii lectin amino acid sequence (reported as Rec-2 in WO 2010/095143) (protein)
chain: TYKITVRVYQTNPDAFFHPVEKTVWKYANGGTWTITDDQHVLTMGGSGTSGTLRFHADNGESFTATFGVHNYKRWCDIVTNLAADETGMVINQQYYSQKNREEARERQLSNYQVKNAKGRNFQIVYTEAEGNDLHANLIIG
IC50 of SEQ ID NO: 1 ([1]; 5-FU 0 μM): 25.470 µg/mL
IC50 of SEQ ID NO: 1 ([1]; 5-FU 5 μM): 22.990 µg/mL
IC50 of SEQ ID NO: 1 ([1]; 5-FU 10 μM): 6.374 µg/mL
IC50 of SEQ ID NO: 1 ([1]; 5-FU 50 μM): 1.667 µg/mL
IC50 of SEQ ID NO: 1 ([1]; 5-FU 100 μM): 1.387 µg/mL
IC50 of SEQ ID NO: 1 ([1]; 5-FU 150 μM): 1.216 µg/mL
IC50 of SEQ ID NO: 1 ([1]; 5-FU 200 μM): 1.334 µg/mL
IC50 of SEQ ID NO: 1 ([1]; Irinotecan 0 μM): 18.320 µg/mL
IC50 of SEQ ID NO: 1 ([1]; Irinotecan 0.1 μM): 73.480 µg/mL
IC50 of SEQ ID NO: 1 ([1]; Irinotecan 1 μM): 36.280 µg/mL
IC50 of SEQ ID NO: 1 ([1]; Irinotecan 5 μM): 23.520 µg/mL
IC50 of SEQ ID NO: 1 ([1]; Irinotecan 10 μM): 9.995 µg/mL
IC50 of SEQ ID NO: 1 ([1]; Irinotecan 25 μM): 8.258 µg/mL
IC50 of SEQ ID NO: 1 ([1]; Irinotecan 50 μM): 1.395 µg/mL
Conc. of SEQ ID NO: 1 showing synergistic effect ([1]; in combination with Irinotecan, paired with Irinotecan conc. of the same table row): 40 to 80 µg/mL and 20 µg/mL
IC50 of SEQ ID NO: 1 ([2]; Carboplatin 0 μM): 14.310 µg/mL
IC50 of SEQ ID NO: 1 ([2]; Carboplatin 10 μM): 7.188 µg/mL
IC50 of SEQ ID NO: 1 ([2]; Carboplatin 50 μM): 3.584 µg/mL
IC50 of SEQ ID NO: 1 ([2]; Carboplatin 100 μM): 4.290 µg/mL
IC50 of SEQ ID NO: 1 ([2]; Carboplatin 200 μM): 2.073 µg/mL
IC50 of SEQ ID NO: 1 ([2]; Carboplatin 500 μM): 0.523 µg/mL
IC50 of SEQ ID NO: 1 ([2]; Carboplatin 1000 μM): 0.044 µg/mL
IC50 of SEQ ID NO: 1 ([2]; Paclitaxel 0 nM): 19.800 µg/mL
IC50 of SEQ ID NO: 1 ([2]; Paclitaxel 0.001 nM): 25.370 µg/mL
IC50 of SEQ ID NO: 1 ([2]; Paclitaxel 0.01 nM): 21.220 µg/mL
IC50 of SEQ ID NO: 1 ([2]; Paclitaxel 0.1 nM): 13.700 µg/mL
IC50 of SEQ ID NO: 1 ([2]; Paclitaxel 1 nM): 8.720 µg/mL
IC50 of SEQ ID NO: 1 ([2]; Paclitaxel 5 nM): 5.775 µg/mL
IC50 of SEQ ID NO: 1 ([2]; Paclitaxel 10 nM): 2.248 µg/mL
Conc. of SEQ ID NO: 1 showing synergistic effect ([2]; in combination with Carboplatin, paired with Carboplatin conc. of the same table row): 5 to 80 µg/mL and 2.5 µg/mL
Conc. of SEQ ID NO: 1 showing synergistic effect [2, 7]: 20 to 80 µg/mL and 10 µg/mL
IC50 of SEQ ID NO: 1 ([3]; Cisplatin 0 μM): 12.070 µg/mL
IC50 of SEQ ID NO: 1 ([3]; Cisplatin 0.01 μM): 8.520 µg/mL
IC50 of SEQ ID NO: 1 ([3]; Cisplatin 0.1 μM): 6.033 µg/mL
IC50 of SEQ ID NO: 1 ([3]; Cisplatin 0.5 μM): 0.912 µg/mL
IC50 of SEQ ID NO: 1 ([3]; Cisplatin 1 μM): 0.321 µg/mL
IC50 of SEQ ID NO: 1 ([3]; Cisplatin 5 μM): 0.0036 µg/mL
IC50 of SEQ ID NO: 1 ([3]; Cisplatin […]): 4.455 µg/mL
IC50 of SEQ ID NO: 1 ([3]; Paclitaxel 0 nM): 8.822 µg/mL
IC50 of SEQ ID NO: 1 ([3]; Paclitaxel 0.01 nM): 5.794 µg/mL
IC50 of SEQ ID NO: 1 ([3]; Paclitaxel 0.1 nM): 6.545 µg/mL
IC50 of SEQ ID NO: 1 ([3]; Paclitaxel 0.5 nM): 3.917 µg/mL
IC50 of SEQ ID NO: 1 ([3]; Paclitaxel 1 nM): 3.031 µg/mL
IC50 of SEQ ID NO: 1 ([3]; Paclitaxel 5 nM): 0.709 µg/mL
IC50 of SEQ ID NO: 1 ([3]; Paclitaxel […]): 4.893 µg/mL
Conc. of SEQ ID NO: 1 showing synergistic effect [3, 7]: 1 to 20 µg/mL
IC50 of SEQ ID NO: 1 ([4]; 5-FU 0 μM): 17.3800 µg/mL
IC50 of SEQ ID NO: 1 ([4]; 5-FU 0.01 μM): 0.5800 µg/mL
IC50 of SEQ ID NO: 1 ([4]; 5-FU 0.1 μM): 0.9080 µg/mL
IC50 of SEQ ID NO: 1 ([4]; 5-FU 0.5 μM): 0.1141 µg/mL
IC50 of SEQ ID NO: 1 ([4]; 5-FU 1 μM): 0.0555 µg/mL
IC50 of SEQ ID NO: 1 ([4]; 5-FU 5 μM): 0.0871 µg/mL
IC50 of SEQ ID NO: 1 ([4]; 5-FU […]): 0.5010 µg/mL
IC50 of SEQ ID NO: 1 ([4]; Cisplatin 0 μM): 38.110 µg/mL
IC50 of SEQ ID NO: 1 ([4]; Cisplatin 0.1 μM): 21.190 µg/mL
IC50 of SEQ ID NO: 1 ([4]; Cisplatin 0.5 μM): 2.694 µg/mL
IC50 of SEQ ID NO: 1 ([4]; Cisplatin 0.75 μM): 0.597 µg/mL
IC50 of SEQ ID NO: 1 ([4]; Cisplatin 1.0 μM): 0.316 µg/mL
IC50 of SEQ ID NO: 1 ([4]; Cisplatin 1.5 μM): 0.303 µg/mL
IC50 of SEQ ID NO: 1 ([4]; Cisplatin […]): 11.240 µg/mL
Conc. of SEQ ID NO: 1 showing synergistic effect [4, 8]: 5 to 90 µg/mL
Conc. of SEQ ID NO: 1 showing synergistic effect [4, 9]: 10 to 90 µg/mL and 5 µg/mL
IC50 of SEQ ID NO: 1 ([5]; 5-FU 0 μM): 24.630 µg/mL
IC50 of SEQ ID NO: 1 ([5]; 5-FU 0.1 μM): 686.900 µg/mL
IC50 of SEQ ID NO: 1 ([5]; 5-FU 1 μM): 22.490 µg/mL
IC50 of SEQ ID NO: 1 ([5]; 5-FU 10 μM): 6.842 µg/mL
IC50 of SEQ ID NO: 1 ([5]; 5-FU 50 μM): 1.690 µg/mL
IC50 of SEQ ID NO: 1 ([5]; 5-FU 100 μM): 1.070 µg/mL
IC50 of SEQ ID NO: 1 ([5]; 5-FU […] μM): 0.098 µg/mL
IC50 of SEQ ID NO: 1 ([5]; Gemcitabine 0 μM): 25.060 µg/mL
IC50 of SEQ ID NO: 1 ([5]; Gemcitabine 0.01 μM): 55.490 µg/mL
IC50 of SEQ ID NO: 1 ([5]; Gemcitabine 0.1 μM): 19.450 µg/mL
IC50 of SEQ ID NO: 1 ([5]; Gemcitabine 1 μM): 14.130 µg/mL
IC50 of SEQ ID NO: 1 ([5]; Gemcitabine 5 μM): 12.230 µg/mL
IC50 of SEQ ID NO: 1 ([5]; Gemcitabine 25 μM): 2.044 µg/mL
IC50 of SEQ ID NO: 1 ([5]; Gemcitabine 50 μM): 0.917 µg/mL
Conc. of SEQ ID NO: 1 showing synergistic effect [5, 8]: 5 µg/mL and 10 to 80 µg/mL
IC50 of SEQ ID NO: 1 ([6]; Cisplatin 0 μM): 11.470 µg/mL
IC50 of SEQ ID NO: 1 ([6]; Cisplatin 1 μM): 11.460 µg/mL
IC50 of SEQ ID NO: 1 ([6]; Cisplatin 10 μM): 2.375 µg/mL
IC50 of SEQ ID NO: 1 ([6]; Cisplatin 25 μM): 1.062 µg/mL
IC50 of SEQ ID NO: 1 ([6]; Cisplatin 50 μM): 1.081 µg/mL
IC50 of SEQ ID NO: 1 ([6]; Cisplatin 100 μM): 0.944 µg/mL
IC50 of SEQ ID NO: 1 ([6]; Cisplatin 500 μM): 0.716 µg/mL
IC50 of SEQ ID NO: 1 ([6]; Gemcitabine 0 μM): 10.350 µg/mL
IC50 of SEQ ID NO: 1 ([6]; Gemcitabine 1 μM): 2.242 µg/mL
IC50 of SEQ ID NO: 1 ([6]; Gemcitabine 10 μM): 0.892 µg/mL
IC50 of SEQ ID NO: 1 ([6]; Gemcitabine 50 μM): 0.626 µg/mL
IC50 of SEQ ID NO: 1 ([6]; Gemcitabine 100 μM): 0.155 µg/mL
IC50 of SEQ ID NO: 1 ([6]; Gemcitabine 200 μM): 0.149 µg/mL
IC50 of SEQ ID NO: 1 ([6]; Gemcitabine 300 μM): 0.029 µg/mL
Conc. of SEQ ID NO: 1 showing synergistic effect [6, 9]: 5 to 80 µg/mL
Conc. of SEQ ID NO: 1 showing synergistic effect ([6]; in combination with Gemcitabine, paired with Gemcitabine conc. of the same table row): 2.5 to 80 µg/mL
